Results: the supplement of paper PMC10126150
± gives the standard deviation of the averaged measurements.

test system: ATP; assay: switch fluorescence ratio, 500 uM ATP over buffer (Cy3 cluster intensity, sum of 5 cycles each) (fold (ratio)); higher = stronger signal-on switching upon ATP binding; sequences stand for … in TCGTCGGCAGCGTCAGATGTGTATAAGAGACAGTTTTTTTTTTTTTTTTTTTTTTTTT…TC; conditions: aptamer strand: ATP DNA aptamer (quencher-CACCTGGGGGAGTATTGCGGAGGAAGG + anchor), 100 nM annealed; ATP concentration: 500 uM
Method in brief: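 For every switch-domain sequence, the fluorescence ratio is the mean of per-cluster values, each being summed target-cycle Cy3 intensity over summed buffer-cycle Cy3 intensity. Clusters outside 100-1000 RFU were excluded. On a modified Illumina MiSeq flow-cell, the Cy3-labelled switching-strand clusters were annealed to 100 nM quencher-labelled ATP aptamer, imaged in selection buffer and then after 15 min with 500 uM ATP at 22 °C. Five such cycles were run, with NaOH stripping and re-annealing between them.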
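Further: ATP exposure 15 min at 22 °C before imaging.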

Row | Sequence | switch fluorescence ratio
1 | GGGGATGGTC | 0.962 ± 0.0016
2 | GGGTTAGTTT | 0.992 ± 0.049
3 | TTAGGCCTTT | 0.972 ± 0.048
4 | GGGTCGATTT | 0.999 ± 0.01
5 | TGAGAGTCAG | 0.986 ± 0.017
6 | CGGGAATTAA | 0.997 ± 0.03
7 | AACTGTTTGC | 0.983 ± 0.04
8 | AGAGGCTGTG | 1.01 ± 0.038
9 | AGGTGCTTGG | 0.997 ± 0.026
10 | GGCCCAGGAG | 1.01 ± 0.017
11 | TATAATACAA | 1.024 ± 0.0097
12 | CGGTGCGGGC | 1 ± 0.09
13 | ATTCTTTTGG | 0.9726 ± 0.0041
14 | TTAACTTCGG | 0.9712 ± 0.0059
15 | TGATTCGGGT | 0.984 ± 0.029
16 | TGGCGCTGGG | 0.978 ± 0.022
17 | TTCTCGGCCC | 1.11 ± 0.019
18 | CAACGTTTTG | 0.977 ± 0.023
19 | TTCCATCACA | 1.01 ± 0.021
20 | GGTCATGACG | 0.923 ± 0.046
21 | GGTAGGAGTA | 0.932 ± 0.051
22 | GTATGAGGTG | 1.02 ± 0.044
23 | TTCTATAATT | 1.03 ± 0.02
24 | ACAATGTCT | 0.996 ± 0.014
25 | ATCTTCTAGT | 0.953 ± 0.041

Row | Sequence | switch fluorescence ratio
26 | CGGTAAGGCA | 0.99 ± 0.017
27 | GAACACGGTA | 1.204 ± 0.0023
28 | ATGGATGATG | 0.991 ± 0.018
29 | ACGAGACGAC | 1.06 ± 0.023
30 | TTTCTGTAAT | 1.05 ± 0.03
31 | CGCGTGGCTG | 1 ± 0.019
32 | GATGGAGTTG | 1.013 ± 0.0053
33 | TGAGGGGTGG | 0.961 ± 0.038
34 | CACCGAGATT | 1.07 ± 0.076
35 | TGATTTGGAC | 1.01 ± 0.061
36 | AAGGGTTTGA | 1.032 ± 0.0096
37 | GTTATAGGCT | 0.999 ± 0.035
38 | CTAATAGGAG | 1.004 ± 0.0025
39 | ACTGAAGATT | 1.0263 ± 0.00089
40 | CGGGTTCGTG | 0.972 ± 0.029
41 | GATCAGGGGT | 1.06 ± 0.044
42 | GGGAAAAAAT | 1 ± 0.035
43 | TACCTTTGGG | 1.02 ± 0.032
44 | TATGTGAAGG | 0.995 ± 0.015
45 | ATAGTTCTAA | 0.9939 ± 0.0048
46 | AAGGGCTACG | 0.983 ± 0.04
47 | CGGTGGGTTG | 0.969 ± 0.053
48 | TATTTTTGGC | 1.01 ± 0.018
49 | GAGGGCTAAA | 1.06 ± 0.082
50 | TTGTTATCGG | 1.04 ± 0.04

Row | Sequence | switch fluorescence ratio
51 | TGGAGGATTG | 0.991 ± 0.016
52 | CTATGTGGGT | 1.02 ± 0.048
53 | GCTTTCTGCG | 1.05 ± 0.042
54 | CAATTTAGTG | 1 ± 0.047
55 | AGTGTGGGGT | 0.979 ± 0.054
56 | TAGAAACCTT | 1.81 ± 1.1
57 | GATGAAAGGT | 1.002 ± 0.0047
58 | AACATAGTCA | 1.006 ± 0.0024
59 | TCGTGGTGTT | 1.03 ± 0.021
60 | TAATTTTTTT | 1.01 ± 0.014
61 | AGAAATTGGG | 0.992 ± 0.028
62 | TAGAGGAGGC | 0.996 ± 0.017
63 | AGGGATACTG | 1.072 ± 0.0048
64 | TCCGGAGGCA | 2.2 ± 0.059
65 | TTTCCCGGTG | 2.13 ± 0.039
66 | ATGAGTAGGA | 1.017 ± 0.0061
67 | TATTAAGGGT | 0.979 ± 0.029
68 | TTTACTTAGC | 1.04 ± 0.026
69 | TTAGCTTCTT | 1.07 ± 0.066
70 | GATACGAACG | 1.32 ± 0.043
71 | CGCTTCTGGG | 0.98 ± 0.011
72 | ATTTGAATGG | 0.987 ± 0.027
73 | GAACTCGGCT | 0.959 ± 0.12
74 | AGCCTGTTAG | 0.9892 ± 0.0087
75 | TAGAGCACGG | 1.02 ± 0.012

Row | Sequence | switch fluorescence ratio
76 | TATTTTGTGG | 0.984 ± 0.026
77 | AAGATATAT | 0.984 ± 0.035
78 | ACTCAGTATA | 1.1 ± 0.02
79 | CGGGGGACTG | 1.04 ± 0.039
80 | GGTGATATAG | 0.984 ± 0.021
81 | TTTGCAGGGT | 1.03 ± 0.025
82 | AAGTCTGTTA | 0.994 ± 0.032
83 | AAGATGTATG | 0.99 ± 0.02
84 | GGTTGCGGTG | 0.94 ± 0.083
85 | GTACGAACTT | 1.32 ± 0.061
86 | TCGTTTTGCG | 0.9977 ± 0.0086
87 | TTGCCTTTCG | 0.97 ± 0.041
88 | ATTGGTAGTG | 0.997 ± 0.034
89 | GCTTCCTGTG | 1.49 ± 0.036
90 | TGGGTTTCTA | 0.964 ± 0.021
91 | GGGTTGTATT | 0.991 ± 0.031
92 | AATGTTACGC | 1.02 ± 0.058
93 | CTGTCCTAGG | 1.036 ± 0.0033
94 | GTGGGGCCTG | 0.955 ± 0.013
95 | CGGGGCGGGA | 1.01 ± 0.021
96 | CGGCGGGCTT | 1.02 ± 0.018
97 | GGAGATATGT | 0.987 ± 0.026
98 | CGTGGGACAG | 0.976 ± 0.011
99 | TCGTAAAGGG | 1.01 ± 0.022
100 | TTCATTGTTT | 1.01 ± 0.02
